This is an account of results in patent publication US20180346573A1 (I MAB, published 2018).

Broadly, the EC50 is the concentration giving half of the maximal effect. A low value points to higher potency in that assay.

Numbering of substitutions follows the chain as printed.

B1: H1210 chimera (antibody, V domains shown)
VH: EVKLVESGGDLVKPGGSLKLSCAASGFTFSSYDMSWVRQTPEKSLEWVATISDGGGYIYYSDSVKGRFTISRDNAKNNLYLQMSSLRSEDTALYICAREFGKRYALDYWGQGTSVTVSS
VL: DIVMTQSHKFMSTSVGDRVSISCKASQDVTPAVAWYQQKPGQSPKLLIYSTSSRYTGVPDRFTGSGSGTDFTFTISSVQAEDLAVYYCQQHYTTPLTFGAGTKLELK
notes: also called chimeric antibody
B2: Hu1210-3 (antibody, V domains shown)
VH: B1 VH with K3Q, D10G, K19R, T40A, E42G, N78S, S84N, S88A, L93V, S114T
VL: DIQMTQSPSSLSASVGDRVTITCKASQDVTPAVAWYQQKPGKAPKLLIYSTSSRYTGVPSRFSGSGSGTDFTFTISSLQPEDIATYYCQQHYTTPLTFGQGTKLEIK
notes: Not the mouse mAb HL1210-3
B3: Hu1210-16 (antibody, V domains shown)
VH: EVQLVESGGGLVQPGGSLRLSCAASGFTFSSYDMSWVRQAPGKGLEWVATISDGGGYIYYSDSVKGRFTISRDNAKNSLYLQMNSLRDEDTAVYYCAREFGKRYALDYWGQGTTVTVSS
VL: B2 VL
B4: Hu1210-14 (antibody, V domains shown)
VH: B3 VH with V5L, G44S, A75S, S78T, D88A, Y95I
VL: B2 VL
B5: Hu1210-19 (antibody, V domains shown)
VH: B3 VH with V5L, G44S, A75S, S78T, D88A, Y95I
VL: B2 VL with A43S
B6: Hu1210-22 (antibody, V domains shown)
VH: B3 VH with G44S, Y95I
VL: B2 VL with A43S
B7: Hu1210-8 (antibody, V domains shown)
VH: B3 VH with Q13K, D88A
VL: B2 VL with A43S
B8: Hu1210-27 (antibody, V domains shown)
VH: B3 VH with D88A, Y95I, T114L
VL: DIQMTQSPSSLSASVGDRVTITCKASQDVTPAVAWYQQKPGKAPKLLIYSTSSRYTGVPSRFSGSGSGTDFTLTISSLQPEDFATYYCQQHYTTPLTFGQGTKLEIKR
B9: Hu1210-31 (antibody, V domains shown)
VH: B3 VH with D88A, Y95I
VL: B8 VL
B10: Hu1210-17 (antibody, V domains shown)
VH: B3 VH with G44S, Y95I
VL: B2 VL
B11: Hu1210-36 (antibody, V domains shown)
VH: B3 VH with A40T, G42E, G44S, S78N, D88A, Y95I, T114L
VL: B8 VL

human PD-L1 expressed on CHOK1 cells (PDL1-CHOK1 cell line) (human), sequence (Q9NZQ7 19-290): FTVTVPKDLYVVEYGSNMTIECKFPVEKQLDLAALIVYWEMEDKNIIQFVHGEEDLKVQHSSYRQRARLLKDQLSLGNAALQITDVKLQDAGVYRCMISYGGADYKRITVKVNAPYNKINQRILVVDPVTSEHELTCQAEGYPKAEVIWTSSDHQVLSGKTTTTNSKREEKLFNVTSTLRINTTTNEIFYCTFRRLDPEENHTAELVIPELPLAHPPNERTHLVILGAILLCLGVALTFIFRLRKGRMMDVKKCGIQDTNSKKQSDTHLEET

For the first assay, the target named is T1, human PD-L1 expressed on CHOK1 cells (PDL1-CHOK1 cell line) (human, UniProt Q9NZQ7 19-290).
T1 construct: whole, on cells; also called PDL1-CHOK1 cells; PD-L1 expressed on mammalian cells
T1 sequence (Q9NZQ7 19-290): as above
Description: FACS receptor blocking: PDL1-CHOK1 cells, competitor Bio-PD1 (30 µg/ml). As for the experimental part: To evaluate the blocking effect of humanized antibodies on human PD-L1 expressed on mammalian cells to bind to its receptor PD-1, the FACS-based receptor blocking assay was employed. Briefly, PDL1-CHOK1 cells were firstly incubated with 3-fold serious diluted HL1210-3 mouse mAb starting at 20 μg/ml at RT for 1 hour. After wash by FACS buffer (PBS with 2% FBS), the biotin-labeled huPD-1 were added to each well and incubated at RT for 1 hour. Then, the Streptavidin-PE were added to each well for 0.5 hour post twice wash with FACS buffer. The mean florescence intensity (MFI) of PE were evaluated by FACSAriaIII.
For the molecule B1, the TOP was determined as 87.2%. Take B2: the TOP amounted to 84.3%. For B3, the TOP came to 88%. On the same count and under the same terms, to B4 belongs 79.6%; to B5, 87.5%. For B6, the TOP was 85.8%. Still for that read-out and setting: to B7 belongs 86.3%. As for B8, the TOP came out at 104%.

With B9, the TOP was determined as 92.9%.

B10 came in with a TOP of 80.9%. B11 had a TOP of 91.8%.

A further assay concerns the target human PD-L1 expressed on CHOK1 cells (PDL1-CHOK1 cell line) (human) (UniProt Q9NZQ7). The assay is described as follows: FACS on PDL1-CHOK1 cells, MFI of Alexa 488 anti-human IgG; EC50 table under the graph, unit from the x axis Antibodies(nM); fit value of a flat control curve, see non_binding.
As to Hu IgG (antibody), the EC50 stood at 9.55 µM.
